The test system of series [1] is prostate cancer cells. The note with it: cited from earlier work.
In series [2] the test system is osteoclasts. The conditions noted are these: cited from earlier work.
The test system of series [3] is lung cancer cells 3LL. The note with it: lung cancer cells 3LL (mice); cited from earlier work.
In series [4] the test system is Morris liver cancer cells. The note with it: Morris liver cancer cells (rats); cited from earlier work.
Series [5] relates to B-16 melanoma cells. The note with it: B-16 melanoma cells (mice); cited from earlier work.
Series [6] has as its system HeLa cells. The note with it: HeLa cells (human); cited from earlier work.
The nature of series [7]: Glycosyltransfering reaction with crude enzyme, substrate PPD. The series is classed as biochemical. The conditions noted are these: for conversion of PPD: cell lysate of recombinant yeasts, method of Example 4.
Series [8] can be described thus: Glycosyltransfering reaction with crude enzyme, substrate PPT. The series is classed as biochemical. The conditions noted are these: for conversion of PPT: cell lysate of recombinant yeasts, method of Example 4.
The nature of series [9]: Glycosyltransfering reaction with crude enzyme, substrate Rh2. The series is classed as biochemical. The conditions noted are these: cell lysate of recombinant yeasts, method of Example 4.
Series [10] is described as follows: Glycosyltransfering reaction with crude enzyme, substrate Rg3. The series is classed as biochemical. The note with it: cell lysate of recombinant yeasts, method of Example 4. As to the method: (§1) The lysate supernatant of the recombinant yeasts expressing the empty vector was used as control.
(§2) The reaction was conducted under 35° C. for 12 hrs, then stopped by adding 100 μL of butanol. The product were extracted, dried in vacuum, and dissolved in methanol.
(§3) The reaction products were first detected by thin layer chromatography (TLC). […]

Series [11] is described as follows: Glycosyltransfering reaction with crude enzyme, substrate CK. The conditions noted are these: for conversion of CK: cell lysate of recombinant yeasts, method of Example 4. The series is classed as biochemical. As to the method: (§4) According to the method as in Example 4, the cell lysate of recombinant yeasts expressing gGT13 and gGT30 were used to catalyze PPD and PPT.
(§5) The glycosyltransfering reactions of ginsenosides and ginsengenins were catalyzed by using the lysis supernatant of the recombinant yeasts expressing 3GT1, 3GT2, 3GT3 and 3GT4 as crude enzymes. The lysis supernatant of recombinant E. coli expressing empty vectors was used as control. The 100 μL reaction system is shown as Table 3. The reaction was conducted under 35° C. for 12 hrs, then stopped by adding 100 μL of butanol. The product were extracted, dried in vacuum, and dissolved in methanol.

The nature of series [12]: Glycosyltransfering reaction with crude enzyme, substrate F2. The note with it: cell lysate of recombinant yeasts, method of Example 4. The series is classed as biochemical. As to the method: as §4
The lysate supernatant of the recombinant yeast expressing empty vectors was used as control. The reaction was conducted under 35° C. for 12 hrs, and then stopped by adding 100 μL of butanol. The product were extracted, dried in vacuum, and dissolved in methanol.
The glycosyltransfering reactions of ginsenosides Rh2 and F2 were catalyzed by using the lysate supernatant of the recombinant yeasts expressing 3GT1, 3GT2, 3GT3 and 3GT4 as crude enzymes. The 100 μL reaction system is shown as Table 3. The reaction was conducted under 35° C. for 12 hrs, and then stopped by adding 100 μL of butanol. The product were extracted, dried in vacuum, and dissolved in methanol.

Series [13] can be described thus: Glycosyltransfering reaction with crude enzyme, substrate F1. The series is classed as biochemical. The note with it: for conversion of F1: cell lysate of recombinant yeasts, method of Example 4. The protocol:
as §4
The lysis supernatant of recombinant E. coli expressing empty vectors was used as control. The 100 μL reaction system is shown as Table 3. The reaction was conducted under 35° C. for 12 hrs, then stopped by adding 100 μL of butanol. The product were extracted, dried in vacuum, and dissolved in methanol.

A short description of series [14]: Glycosyltransfering reaction with crude enzyme, substrate Rh1. The series is classed as biochemical. The note with it: cell lysate of recombinant yeasts, method of Example 4. The protocol: as §1, §2, §3
A short description of series [15]: Glycosyltransfering reaction with crude enzyme, substrate Rg1. The note with it: cell lysate of recombinant yeasts, method of Example 4. The series is classed as biochemical.
The nature of series [16]: Glycosyltransfering reaction with crude enzyme, substrate DM. The series is classed as biochemical. The conditions noted are these: 35° C., 12 hrs, TLC.
Series [17] can be described thus: Glycosyltransfering reaction with crude enzyme, substrate 25-OH-PPD. The series is classed as biochemical. The conditions noted are these: 35° C., 12 hrs, TLC. The protocol: as §5
The nature of series [18]: Glycosyltransfering reaction with crude enzyme, substrate lanosterol. The series is classed as biochemical. The conditions noted are these: 35° C., 12 hrs, TLC. As to the method: as §5
Series [19] can be described thus: Glycosyltransfering reaction with crude enzyme, substrate 20(R)-PPD. The conditions noted are these: 35° C., 12 hrs, TLC. The series is classed as biochemical.
A short description of series [20]: Glycosyltransfering activities on ginsengenins and saponins: glycosylation site and specificity (summary). The series is classed as biochemical. In short, it runs like this: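 Crude enzymes were lysate supernatants of recombinant yeast expressing 3GT1, 3GT2, 3GT3 or 3GT4, with empty-vector lysate as control. Reactions ran at 35° C for 12 hrs and were stopped with butanol; products were extracted, dried in vacuum and dissolved in methanol.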

Series [21] in a line: Glycosyltransfering reaction with crude enzyme, substrate PPT. The conditions noted are these: crude enzyme: lysate supernatant of recombinant E. coli; UDP-glucose, 35° C., 12 hrs; TLC. The series is classed as biochemical.
[22] abbreviates: crude enzyme: lysate supernatant of recombinant E. coli, UDP-glucose, 35° C., 12 hrs, TLC.
[23] abbreviates: crude enzyme of Example 11, 35° C., 12 hrs, TLC.
Where [24] appears, read: crude enzyme: lysate supernatant of recombinant E. coli, UDP-glucose.

In the case of `CC(C)=CCC[C@@](C)(O)[C@H]1CC[C@]2(C)[C@@H]1[C@H](O)C[C@@H]1[C@@]3(C)CC[C@H](O[C@@H]4O[C@H](CO)[C@@H](O)[C@H](O)[C@H]4O)C(C)(C)[C@@H]3CC[C@]12C` [R-type ginsenoside Rh2, 3-O-β-(D-glucopyranosyl)-20(R)-protopanaxadiol], the “inhibition of prostate cancer cells” value in series [1] was “quite poor”. Further, in series [2], the cytotoxicity to osteoclasts entry is reported as “without any cytotoxicity” and the “inhibition of the generation of osteoclasts” value is “selectively inhibit”.
As for `CC(C)=CCC[C@](C)(O)[C@H]1CC[C@]2(C)[C@@H]1[C@H](O)C[C@@H]1[C@@]3(C)CC[C@H](O[C@@H]4O[C@H](CO)[C@@H](O)[C@H](O)[C@H]4O)C(C)(C)[C@@H]3CC[C@]12C` [ginsenoside Rh2, 3-O-β-(D-glucopyranosyl)-20(S)-protopanaxadiol], the “inhibition of prostate cancer cells” value in [1] is on record as “significantly inhibit”. Also, in [2], the cytotoxicity to osteoclasts entry is “strong cytotoxicity”. The “inhibition of the generation of osteoclasts” value in series [2] was “poorly inhibits”. Also, the inhibition of proliferation entry in series [3], in [4], in series [5] and in [6] was “can inhibit the proliferation” each time.

B1: gGT13: glycosyltransferase protein with 476 amino acids, SEQ ID NO.: 4 (protein)
chain: MGAELILIPSPGVGHLVSTVEIAKLLISRDERLSITVLVMKFSHDTGVTAYTRSLQKDAPNRIVFVDLPQNESLISSPKSFFTSFIESQTSPVRDSVRQIVSRSDSNKLAGFVIDMFCTPMIDVANEFGVPTYVFFTSGAAFLGLQFYHLSLSDEHNQDLTEYKDTDVELSIPSFINPVPAKVLPSVILNKEGSTMLQSISRRFKEAKAILVNTFAELEPHAIKALGDNCKIPPIYPVGPIINLKNKEGTTQNHSSEDGIISWLDNQPPSSVVFLCFGSFGSFDEGQVREIANGLEQSGQRFLWSLRRRPEKMELPKDYENPEEVLPEGFIERTSGMGKVIGWAPQTAILSHPAVGGFVSHCGWNSTLESIWCGVPMATWPIYAEQQINAFELVKELGMAVEIKMDYREDYIFAPENNLVVTADQIEKGMRCLMMDGESEMRKKVEEMKEKSRMAMVKGGSSYISLGHFIEDVMRN
modifications: Panax ginseng; gGT13
Consider B1, for which the “conversion of PPD” value in series [7] is on record as “neither converted”. In addition, the “conversion of PPT” value in series [8] was “neither converted”. Besides, the “conversion of Rh2” value in series [9] is “neither converted”. Besides, the “conversion of Rg3” value in [10] is given as “neither converted”. The “conversion of CK” value in series [11] is “neither converted”. For the same molecule, the “conversion of F2” value in series [12] is on record as “neither converted”. In series [13], the “conversion of F1” value was “neither converted”. For the same molecule, the “conversion of Rh1” value in series [14] was “neither converted”. Further, in series [15], the “conversion of Rg1” value was “neither converted”.

B2: gGT30: glycosyltransferase protein with 451 amino acids, SEQ ID NO.: 6 (protein)
chain: MATQKCFRVLVFPWLAHGHISPFLELARKLIEKGNFFIYFCSTPINLISIKKKLSGDDHQNYTKSIQLVEHNLPTLPQLPPHYHTTDGLPPNLNPTLRKAFEMSKLSFPNTLNTLKPDLLICDDLFQWPEIVASSHGVPVVRFQTCSVTAASFLAHIFTNPDVTYPFPAIYLHEYETDQIRRCVDAVFESGREESRNLLVVNTSKAIEEKYFYYYSLLRGNTKIMPVGPLIQQAPNGDEDMKVIEWLDKKDPCSTVFVSFGSEYFMQKEEVEEMAHGLELSNVNFIWVFRAPVGAEKVKLPLGFVERVGGRGIVMEGWAPQARILGHSSIGGFVSHCGWNSVLETINFGVPIIGMPMKFEQPMNARLLSELGVCVEIVGDETRRFGREEVGNVIREVVGGKIGDDLRRKVKELGAKIKEKQEEEMDDVLDELVQICNKKKRTVVHHHHHH
modifications: Panax ginseng; gGT30
Take B2: the “conversion of PPD” value in series [7] is given as “neither converted”. In addition, the “conversion of PPT” value in series [8] was “neither converted”. The “conversion of Rh2” value in series [9] was “neither converted”. In series [10], the “conversion of Rg3” value is “neither converted”. Besides, the “conversion of CK” value in series [11] is “neither converted”. Further, the “conversion of F2” value in series [12] was “neither converted”. In [13], the “conversion of F1” value is “neither converted”. In [14], the “conversion of Rh1” value was “neither converted”. In series [15], the “conversion of Rg1” value was “neither converted”.

B3: 3GT2: glycosyltransferase protein with 495 amino acids, SEQ ID NO.: 24; homology with UGT73C12 of Barbarea vulgaris higher than 99% (protein, listed as Barbarea vulgaris)
chain: MVSEITHKSYPLHFVLFPFMAQGHMIPMVDIARLLAQRGVKITIVTTPHNAARFKNVLSRAIESGLPISIVQVKLPSQEAGLPEGNETLDSLVSMELMIHFLKAVNMLEEPVQKLFEEMSPQPSCIISDFCLPYTSKIAKKFNIPKILFHGMCCFCLLCMHILRKNREIVENLKSDKEHFVVPYFPDRVEFTRPQVPVATYVPGDWHEITEDMVEADKTSYGVIVNTYQELEPAYANDYKEARSGKAWTIGPVSLCNKVGADKAERGNKADIDQDECLKWLNSKEEGSVLYVCLGSICNLPLSQLKELGLGLEESQRPFIWVIRGWEKNKELHEWFSESGFEERIKDRGLLIKGWAPQMLILSHHSVGGFLTHCGWNSTLEGLTAGLPLLTWPLFADQFCNEKLAVQVLKAGVSAGVDQPMKWGEEEKIGVLVDKEGVKKAVEELMGESDDAKEIRRRAKELGELAHKAVEEGGSSHSNITSLLEDIMQLAQSNN
modifications: 3GT2
For the molecule B3, the “substrate that could be catalyzed: PPD” value in series [7] (setting [22]) is “✓”. The “glycosylation of C3-OH of PPT (product 3-O-β-(D-glucopyranosyl)-PPT)” value in series [8] (setting [23]) is given as “could be glycosylated”. Further, the “glycosylation of C3-OH of DM (product 3-O-β-(D-glucopyranosyl)-Dammarenediol II)” value in series [16] (crude enzyme of Example 11) was “could be glycosylated”. In addition, the “substrate that could be catalyzed: DM” value in series [16] (setting [24]) is listed as “✓”. Besides, the “glycosylation of C3-OH of CK (product F2)” value in [11] (setting [23]) was “further glycosylating its C3-OH”. Besides, in [11] (setting [22]), the “substrate that could be catalyzed: CK” value is given as “✓”. Moreover, the “glycosylation of C3-OH of F1 (product 3-O-β-(D-glucopyranosyl)-F1)” value in series [13] (setting [23]) was “could be glycosylated”. Moreover, in series [13] (setting [22]), the “substrate that could be catalyzed: F1” value is reported as “✓”. In [17] (crude enzyme of Example 11), the “glycosylation of C3-OH of 25-OH-PPD (product 3-O-β-(D-glucopyranosyl)-25-OH-PPD)” value was “could be glycosylated”. For the same molecule, in series [17] (setting [24]), the “substrate that could be catalyzed: 25-OH-PPD” value was “✓”. In addition, the “glycosylation of C3-OH of lanosterol (product 3-O-β-(D-glucopyranosyl)-lanosterol)” value in [18] (crude enzyme of Example 11) was “could be glycosylated”. Also, the “substrate that could be catalyzed: lanosterol” value in series [18] (setting [24]) is “✓”. Besides, the “catalysis of 20(R)-PPD (product 20(R)-ginsenoside Rh2)” value in series [19] (crude enzyme of Example 11) is on record as “could catalyze”. Also, in series [19] (setting [24]), the “substrate that could be catalyzed: 20(R)-PPD” value was “✓”. Besides, in series [20] (20(S)-type versus 20(R)-type substrates), the “effect of the steric configuration of the hydroxyl or glycosyl at C20 on catalytic activity” value is recorded as “not affected”. In addition, the “glycosylation site: C-3” value in series [20] (Table 2, tetracyclic triterpenoid substrates) was “✓”. The “substrate spectrum / specificity” value in series [20] (comparison of 3GT1, 3GT2, 3GT3 and 3GT4, Table 6) was “most number of substrates”. Besides, the “substrate that could be catalyzed: PPT” value in series [21] was “✓”.

(Values after patent US9976167B2, “Group of glycosyltransferases and use thereof” (Shanghai Institutes For Biological Sciences, Chinese …, priority 2012, dated 2018).)
